Molecular target: NiV F clamp (Nipah virus (Malaysia strain)) (UniProt Q9IH63)
Assay: SEC

NiV F clamp (from UniProt Q9IH63 27-483)
stoichiometry N: 3

Reference: publication PMC8537613
